± gives the uncertainty stated by the source.
Experiment: amyloid nucleation score (Sup35N fusion, yeast selection) (log enrichment); library NNK3; higher = more nucleation; inactive = no reads after selection
Procedure, shortened: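 Psi-negative yeast expressed Sup35N fused to peptides of 20 random codons. They were induced 24 hours with 100 μM copper sulfate, grown 7 days at 30°C without adenine and uracil, and their plasmid inserts from input and output were Illumina-sequenced. The nucleation score is the DiMSum log enrichment of output over input reads, centred on the mode score of non-aggregating sequences. Sequences with under 100 input reads were excluded.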

## HDNQFYVMLWAISAAYRLAS
  amyloid nucleation score: inactive

## KRVLEGRFITVSM
  amyloid nucleation score: inactive

## IVYTMCDFWSSMDLVDNLQG
  amyloid nucleation score: inactive

## AYQCHDDVVWWRCQMASCS
  amyloid nucleation score: inactive

## YFSYLCGVRYLYCFKLCSSM
  amyloid nucleation score: inactive

## HSNVGCKFAIKYSLAFCGVK
  amyloid nucleation score: inactive

## PCTMDESRYLVMYFHFPMSV
  amyloid nucleation score: inactive

## IRSDG
  amyloid nucleation score: inactive

## MGNAEEIAIHDSSAWVVVAR
  amyloid nucleation score: inactive

## GWWRMAWLV
  amyloid nucleation score: inactive

## LVFASSVSSSDLTLCVGSCM
  amyloid nucleation score: -0.594 ± 2.4

## LARRRSTCDICWLSYKATDL
  amyloid nucleation score: inactive

## CCVDPLAELLICMTALIASR
  amyloid nucleation score: inactive

## SSESDVNLDVMSKYKFGNIH
  amyloid nucleation score: inactive

## RSMHLTWYW
  amyloid nucleation score: 1.4 ± 0.11

## TLLMMYKVGYLAMAIRMGGL
  amyloid nucleation score: inactive

## RVIDQMNPQGGWDLTFDSRR
  amyloid nucleation score: inactive

## NWDRGLTCHMYRFSNWRWGS
  amyloid nucleation score: inactive

## VFEHVGWNPHVRYTVNR
  amyloid nucleation score: inactive

## FTVYCF
  amyloid nucleation score: inactive

## VSSILQRIISYFRTARFNYL
  amyloid nucleation score: inactive

## ANKSCGHVDWDIGESYMARL
  amyloid nucleation score: inactive

## IFIYGPLPPVRCYHYDWWNL
  amyloid nucleation score: inactive

## VYPSTSTLNYVMLQLTPVNS
  amyloid nucleation score: inactive

## RDIMGLDLFQARNTTRSNYK
  amyloid nucleation score: inactive

## YGAMSAGDMETY
  amyloid nucleation score: inactive

## FVAADSPGVSSFKAN
  amyloid nucleation score: inactive

## AWMVFCPCKMCMCRCYL
  amyloid nucleation score: 1.41 ± 0.073

## VYIMYLSGCCRCHVPMNEGT
  amyloid nucleation score: 2.05 ± 0.073

## CYKMNVMT
  amyloid nucleation score: inactive

## TIHHRCCSKWKSAWRAYWSI
  amyloid nucleation score: inactive

## VYGASTLSAHMWR
  amyloid nucleation score: inactive

## YMGCMTVW
  amyloid nucleation score: inactive

## WLSRPLCIIGWASRSMRGSH
  amyloid nucleation score: inactive

## TVRKHLLLDHKWYVVNSEIT
  amyloid nucleation score: inactive

## CWADSDSVSKKSRIA
  amyloid nucleation score: inactive

## LYFMCTNRQVL
  amyloid nucleation score: inactive

## PCSYLCSRVFIIC
  amyloid nucleation score: inactive

## VYASCTFNIEKVLSVVQTTF
  amyloid nucleation score: 1.52 ± 0.087

## FSYEMFNAMGYFPIASLCSF
  amyloid nucleation score: inactive

## DALRL
  amyloid nucleation score: inactive

## RSVYYRSLLGTNYCSFLLFD
  amyloid nucleation score: inactive

## VSLGFEFMGFHAGW
  amyloid nucleation score: 1.09 ± 0.15

## FDGKMVYFSAEFSFDKFLDR
  amyloid nucleation score: 1.74 ± 0.11

## SPPLYSYRGRYMERYHSKWN
  amyloid nucleation score: inactive

## IGWKEVSA
  amyloid nucleation score: -0.006 ± 0.35

## QTYMTLHETVRLWARMLSC
  amyloid nucleation score: inactive

## YLLRHILSIWKGWDWGTSQ
  amyloid nucleation score: inactive

## SYWRLHVIIFLWFFYLRYFN
  amyloid nucleation score: inactive

## LYVTRVSVSVVTYRFTCKRV
  amyloid nucleation score: inactive

## PVNEFYYLFCKRVYPCALQI
  amyloid nucleation score: 0.295 ± 0.53

## GNDVGSMFESRN
  amyloid nucleation score: inactive

## SEYLVMLTGWVTTHLQMLWV
  amyloid nucleation score: inactive

## RNKRLKLILYLHRVDEAVAE
  amyloid nucleation score: inactive

## FVLFGGWLPRVQRLSLGTGR
  amyloid nucleation score: inactive

## KNIPFYIGWVEVSTAGARYP
  amyloid nucleation score: inactive

## LIPASLKADRQCAHSRYSR
  amyloid nucleation score: inactive

## NYLLEEEYMISCIEAITLQP
  amyloid nucleation score: -0.345 ± 0.82

## VLLKALVIFDY
  amyloid nucleation score: inactive

## VEGATWHTWSCVNHVVVKGF
  amyloid nucleation score: inactive

## VSSFFSLPCTSAPVIDWVGV
  amyloid nucleation score: inactive

## RYFSW
  amyloid nucleation score: inactive

## TLANQSHLISYYDSDHCRLL
  amyloid nucleation score: -0.38 ± 0.78

## CSMPFTSSEKLGKCGNDAPF
  amyloid nucleation score: inactive

## PFWVTVYMDILLVKQQPLSV
  amyloid nucleation score: inactive

## ISVVGILLGLSSFPVYSVSW
  amyloid nucleation score: inactive

## YFRFFTFSNCRDYKDTYPTL
  amyloid nucleation score: 0.972 ± 0.23

## VFNWYEVVFTFWCNMTANGM
  amyloid nucleation score: 1.49 ± 0.069

## RLPPDSQMPSFYCCVDL
  amyloid nucleation score: -0.144 ± 1.1

## LHMEG
  amyloid nucleation score: -0.611 ± 1.1

## SFNFSRHLVLF
  amyloid nucleation score: inactive

## RTFFYWIKLAINFSNVCRGF
  amyloid nucleation score: inactive

## NQEVSTGNILGLLAVTSCRD
  amyloid nucleation score: inactive

## FQVLN
  amyloid nucleation score: inactive

## IQWFRQCSFRCSNHYSSAFK
  amyloid nucleation score: 1.44 ± 0.14

## VHKYSVDFGKGW
  amyloid nucleation score: inactive

## GLIVCVVASSYLMSGFGVKG
  amyloid nucleation score: 0.03 ± 0.22

## NIFNCDRGSFFLLYRGIGFY
  amyloid nucleation score: inactive

## THSDYSEPRI
  amyloid nucleation score: inactive

## EEMLRHCHKIRERWGSKSFE
  amyloid nucleation score: inactive

## SNLLS
  amyloid nucleation score: inactive

## VLARLQLHFCSMTSDRYGLM
  amyloid nucleation score: 1.04 ± 0.11

## YFSSLNSNFWGVVRRRLLYN
  amyloid nucleation score: inactive

## FYSNPNIVGFLMLLVYILEP
  amyloid nucleation score: inactive

## SFTLPSIGWWYALFRSYWID
  amyloid nucleation score: inactive

## FVASDLLFGVRDQSVFSLSQ
  amyloid nucleation score: inactive

## FLPCRFHNSLTDND
  amyloid nucleation score: inactive

## YIRLCSVFGTTWYARLDG
  amyloid nucleation score: 0.459 ± 0.27

## VYCEPNMP
  amyloid nucleation score: -0.163 ± 1.1

## LISINLVQTSPRPRHYYLCS
  amyloid nucleation score: inactive

## FSSRHVTPCIRINFNIVSCS
  amyloid nucleation score: inactive

## IVKKHVDFQQTVN
  amyloid nucleation score: inactive

## KICGNRPGVSRYLVGLDVMC
  amyloid nucleation score: inactive

## ITRWHGSLHSDYGIGICFSI
  amyloid nucleation score: inactive

## NVGMSKNVFGM
  amyloid nucleation score: inactive

## QSVSVGLCCWAMPVK
  amyloid nucleation score: inactive

## LECILADIASCIQPRAYCIS
  amyloid nucleation score: inactive

## KLNGFPWRPAWHEVMAGWVW
  amyloid nucleation score: inactive

## HYYVSTDLWSIMMYTILRPC
  amyloid nucleation score: inactive

## RYGFADSYMLFLFRYTPSSG
  amyloid nucleation score: inactive

## TQLRTVCSTW
  amyloid nucleation score: inactive

## LFYSTARCEKSRCVMGRMRG
  amyloid nucleation score: inactive

## DTVMRSVLEAIVYINKIFVR
  amyloid nucleation score: inactive

## SLSNSVWINFARNGLSSLCQ
  amyloid nucleation score: inactive

## FLWMSGSSGWLSTVVIGGSW
  amyloid nucleation score: inactive

## IQTSNTHVVLVFFGRILRIC
  amyloid nucleation score: inactive

## FIYYDRFVKPSPKQTVSFSA
  amyloid nucleation score: inactive

## FNMYFCVIWLCDSFLIMCG
  amyloid nucleation score: inactive

## KRLLVKVLLDVIGAYRDSSC
  amyloid nucleation score: inactive

## ATGDNNLGIMAMALYT
  amyloid nucleation score: inactive

## FLFRRLGRSYYKYAV
  amyloid nucleation score: inactive

## TLEFHPRAINYDHRMNMFSR
  amyloid nucleation score: inactive

## NVSFCDDASARANVYHLGKS
  amyloid nucleation score: inactive

## TPAMYFPIYFSAHGHLYLFY
  amyloid nucleation score: inactive

## ANVCGVL
  amyloid nucleation score: inactive

## VMLCHFDMYF
  amyloid nucleation score: 1.45 ± 0.092

## MRNMCVLAIILILCFGTRFK
  amyloid nucleation score: 1.21 ± 0.08

## FHWYFAVSYTSYNMLSVWFV
  amyloid nucleation score: inactive

## IESKLDAYTLCVGSSNWLWM
  amyloid nucleation score: inactive

## ESFWVML
  amyloid nucleation score: inactive

## NPPKDGYMLTWIIYDRKAGT
  amyloid nucleation score: inactive

## TYYSLVF
  amyloid nucleation score: inactive

## PGFSLFLGLRSVWKHFFCFR
  amyloid nucleation score: inactive

## RVGVACKCFIQCLYFVFISI
  amyloid nucleation score: inactive

## DRISGFVIKYNFNLSFSEMW
  amyloid nucleation score: 0.52 ± 0.17

## HARFNVRNN
  amyloid nucleation score: inactive

## MSGLLCAEIWSRCPASFIGD
  amyloid nucleation score: inactive

## SRYLGKGFVSGTCDVGCGLN
  amyloid nucleation score: inactive

## VFMCILDWRVNSHMCLKLFH
  amyloid nucleation score: inactive

## CFSNLGCTGWRT
  amyloid nucleation score: -0.684 ± 1.2

## QEGWCWSYLVAGGWV
  amyloid nucleation score: inactive

## LHTICHMLLIH
  amyloid nucleation score: inactive

## YLEKAL
  amyloid nucleation score: inactive

## FNFLPNGWRGKVHIGYYGNT
  amyloid nucleation score: inactive

## KGFTDWFWCFTPVVEWKSIT
  amyloid nucleation score: inactive

## SSMVTSLGCVLYKL
  amyloid nucleation score: inactive

## TTQILYTFY
  amyloid nucleation score: 1.56 ± 0.12

## ILFLSLRSYSLNGFSDIMYY
  amyloid nucleation score: inactive

## CEFTYGKDAKVRTEAYHAYW
  amyloid nucleation score: inactive

## TRTCRIWIKSVMGRRWVIRM
  amyloid nucleation score: inactive

## QFDFVLPVGYVFGDGYVLWV
  amyloid nucleation score: inactive

## NGIMLQIRNPSSKLNNLLWF
  amyloid nucleation score: inactive

## ITGPTSVYE
  amyloid nucleation score: inactive

## AVNCESSCCECYGTFMDKPV
  amyloid nucleation score: inactive

## IVCRISTTCQWCRINVSGGS
  amyloid nucleation score: 1.12 ± 0.1

## FHGYRLVYPSDYPWCLSSVH
  amyloid nucleation score: inactive

## IGWGVQFELFGTWRVEIPLV
  amyloid nucleation score: inactive

## EGNMLASRSSGEPS
  amyloid nucleation score: inactive

## NGFLNSINGTVMVQGYSTAF
  amyloid nucleation score: inactive

## VVSFNPIKCIVCGV
  amyloid nucleation score: inactive

## GNWWCNCTQYNLGMMDSALG
  amyloid nucleation score: 1.98 ± 0.071

## GIVDQFRTVSNNVLNQYEIW
  amyloid nucleation score: inactive

## YPYCKKGWCDMKTKGRSKEG
  amyloid nucleation score: inactive

## IERCVFAFCYCSLGQSAKSF
  amyloid nucleation score: 1.49 ± 0.14

## PSMSADGADLSGCQLIMVLS
  amyloid nucleation score: inactive

## FRADSSVGVIKVCLGRLCRW
  amyloid nucleation score: inactive

— the supplement of paper PMC12042874
